These results are taken from publication PMC3499988 (Biochemistry, 2011).

Common to all, as to assay: SPR
For orientation: In SPR one partner is held on a chip, and binding of the other changes the refractive index at the surface.

In test [1] the target is T1, HIV-1 YU-2 gp120 (HIV-1 (YU-2), UniProt P35961).
Test [2] deals with T1, HIV-1 YU-2 gp120. The source holds these as a separate data set.
Test [3] concerns the target T1, HIV-1 YU-2 gp120. This is another data set of the same source.

Like-named read-outs stand apart in the source and are kept apart here.

B1: Fab m18 N30A (HCDR1) (Fab, V domains shown)
VH: VQLLESGPGVVKPSETLSLTCTVSGASVANYYWTWVRQPPGKGLEWIGNVYDSGDTNYNPSLSSRLSLSMDTSKNQFSLRLSSVTAADTATYYCARYHRHFIRGPLSFDYWGRGTLVTVSS
VL: LQMTQSPSFLSASVGDRVSITCRASQDIQKFLAWYQLTPGDAPKLLMYSASTLQSGVPSRFSGSGSGTEFTLTISGLQPEDFATYYCQHLKRYPYTFGQGTKLEIS
In test [1], B1 yielded an IC50 greater than 1000 nM. For the same molecule, the IC50 in test [2] was greater than 1000 nM. In test [3], this molecule came in with a dissociation constant (Kd) of 40.9 nM, a koff of 0.0017 ± 0.3 s⁻¹ and a kon of 40000 ± 0.4 M⁻¹ s⁻¹.

B2: Fab m18 Q30A (LCDR1) (Fab, V domains shown)
VH: VQLLESGPGVVKPSETLSLTCTVSGASVNNYYWTWVRQPPGKGLEWIGNVYDSGDTNYNPSLSSRLSLSMDTSKNQFSLRLSSVTAADTATYYCARYHRHFIRGPLSFDYWGRGTLVTVSS
VL: LQMTQSPSFLSASVGDRVSITCRASQDIAKFLAWYQLTPGDAPKLLMYSASTLQSGVPSRFSGSGSGTEFTLTISGLQPEDFATYYCQHLKRYPYTFGQGTKLEIS
Turning to B2, half-maximal inhibition in test [1] (IC50) was put at 129 ± 5 nM. The same molecule yielded an IC50 in test [2] of 80.3 ± 16.7 nM. In test [3], this molecule yielded a Kd of 1.4 nM, an off-rate constant (koff) of 0.00012 ± 0.1 s⁻¹ and an association rate constant (kon) of 91000 ± 0.1 M⁻¹ s⁻¹.

B3: Fab m18 P95A (LCDR3) (Fab, V domains shown)
VH: VQLLESGPGVVKPSETLSLTCTVSGASVNNYYWTWVRQPPGKGLEWIGNVYDSGDTNYNPSLSSRLSLSMDTSKNQFSLRLSSVTAADTATYYCARYHRHFIRGPLSFDYWGRGTLVTVSS
VL: LQMTQSPSFLSASVGDRVSITCRASQDIQKFLAWYQLTPGDAPKLLMYSASTLQSGVPSRFSGSGSGTEFTLTISGLQPEDFATYYCQHLKRYAYTFGQGTKLEIS
In turn, B3 gave a concentration for half-maximal inhibition (IC50) in test [1] greater than 1000 nM. The half-inhibitory concentration (IC50) in test [2] was greater than 1000 nM. Besides, in test [3], the affinity, expressed as Kd, was 35.5 nM; the koff came out at 0.0019 ± 0.3 s⁻¹; the association rate constant (kon) stood at 53000 ± 1.6 M⁻¹ s⁻¹.

B4: Fab m18 R24A (LCDR1) (Fab, V domains shown)
VH: VQLLESGPGVVKPSETLSLTCTVSGASVNNYYWTWVRQPPGKGLEWIGNVYDSGDTNYNPSLSSRLSLSMDTSKNQFSLRLSSVTAADTATYYCARYHRHFIRGPLSFDYWGRGTLVTVSS
VL: LQMTQSPSFLSASVGDRVSITCAASQDIQKFLAWYQLTPGDAPKLLMYSASTLQSGVPSRFSGSGSGTEFTLTISGLQPEDFATYYCQHLKRYPYTFGQGTKLEIS
The molecule B4 came in with an IC50 in test [1] greater than 1000 nM. In test [2], this molecule returned a half-maximal inhibitory concentration (IC50) greater than 1000 nM. In test [3], this molecule returned a dissociation constant Kd of 16.8 nM, an off-rate (koff) of 0.00039 ± 3.7 s⁻¹ and a kon of 23000 ± 0.9 M⁻¹ s⁻¹.

B5: Fab m18 Y32A (HCDR1) (Fab, V domains shown)
VH: VQLLESGPGVVKPSETLSLTCTVSGASVNNAYWTWVRQPPGKGLEWIGNVYDSGDTNYNPSLSSRLSLSMDTSKNQFSLRLSSVTAADTATYYCARYHRHFIRGPLSFDYWGRGTLVTVSS
VL: LQMTQSPSFLSASVGDRVSITCRASQDIQKFLAWYQLTPGDAPKLLMYSASTLQSGVPSRFSGSGSGTEFTLTISGLQPEDFATYYCQHLKRYPYTFGQGTKLEIS
With B5, the IC50 in test [1] came out at 432 ± 31.5 nM. This molecule also showed an IC50 in test [2] of 247 ± 15.8 nM. In test [3], the Kd amounted to 0.4 nM, the koff stood at 6.1e-05 s⁻¹ and the kon is 120000 ± 0.2 M⁻¹ s⁻¹.

B6: Fab m18 R100aE (HCDR3) (Fab, V domains shown)
VH: VQLLESGPGVVKPSETLSLTCTVSGASVNNYYWTWVRQPPGKGLEWIGNVYDSGDTNYNPSLSSRLSLSMDTSKNQFSLRLSSVTAADTATYYCARYHRHFIEGPLSFDYWGRGTLVTVSS
VL: LQMTQSPSFLSASVGDRVSITCRASQDIQKFLAWYQLTPGDAPKLLMYSASTLQSGVPSRFSGSGSGTEFTLTISGLQPEDFATYYCQHLKRYPYTFGQGTKLEIS
B6 displayed an IC50 in test [1] greater than 1000 nM. In test [2], the concentration for half-maximal inhibition (IC50) was greater than 1000 nM. In test [3], this molecule came in with a Kd of 69.2 nM, a koff of 0.0011 ± 0.7 s⁻¹ and a kon of 16000 ± 0.6 M⁻¹ s⁻¹.

B7: Fab m18 K31R (LCDR1) (Fab, V domains shown)
VH: VQLLESGPGVVKPSETLSLTCTVSGASVNNYYWTWVRQPPGKGLEWIGNVYDSGDTNYNPSLSSRLSLSMDTSKNQFSLRLSSVTAADTATYYCARYHRHFIRGPLSFDYWGRGTLVTVSS
VL: LQMTQSPSFLSASVGDRVSITCRASQDIQRFLAWYQLTPGDAPKLLMYSASTLQSGVPSRFSGSGSGTEFTLTISGLQPEDFATYYCQHLKRYPYTFGQGTKLEIS
Consider B7, for which the concentration for half-maximal inhibition (IC50) in test [1] is greater than 1000 nM. Moreover, the IC50 in test [2] is greater than 1000 nM. Besides, in test [3], the affinity, expressed as Kd, was 34.7 nM; the off-rate (koff) was 0.0011 ± 0.2 s⁻¹; the kon was found to be 31000 ± 1.2 M⁻¹ s⁻¹.

B8: Fab m18 T53A (LCDR2) (Fab, V domains shown)
VH: VQLLESGPGVVKPSETLSLTCTVSGASVNNYYWTWVRQPPGKGLEWIGNVYDSGDTNYNPSLSSRLSLSMDTSKNQFSLRLSSVTAADTATYYCARYHRHFIRGPLSFDYWGRGTLVTVSS
VL: LQMTQSPSFLSASVGDRVSITCRASQDIQKFLAWYQLTPGDAPKLLMYSASALQSGVPSRFSGSGSGTEFTLTISGLQPEDFATYYCQHLKRYPYTFGQGTKLEIS
The molecule B8 registered an IC50 in test [1] greater than 500 nM. Further, the IC50 in test [2] is greater than 500 nM. In test [3], this molecule returned a dissociation constant (Kd) of 35.2 nM, a koff of 0.00071 ± 7 s⁻¹ and a kon of 20000 ± 2.1 M⁻¹ s⁻¹.

B9: Fab m18 Y102A (HCDR3) (Fab, V domains shown)
VH: VQLLESGPGVVKPSETLSLTCTVSGASVNNYYWTWVRQPPGKGLEWIGNVYDSGDTNYNPSLSSRLSLSMDTSKNQFSLRLSSVTAADTATYYCARYHRHFIRGPLSFDAWGRGTLVTVSS
VL: LQMTQSPSFLSASVGDRVSITCRASQDIQKFLAWYQLTPGDAPKLLMYSASTLQSGVPSRFSGSGSGTEFTLTISGLQPEDFATYYCQHLKRYPYTFGQGTKLEIS
Regarding B9, in test [1], the IC50 was greater than 1000 nM. The same molecule gave an IC50 in test [2] greater than 1000 nM. Besides, in test [3], the affinity, expressed as Kd, was 31.5 nM; the koff came to 0.0012 ± 0.4 s⁻¹; the kon was 37000 ± 1.4 M⁻¹ s⁻¹.

B10: Fab m18 D28A (LCDR1) (Fab, V domains shown)
VH: VQLLESGPGVVKPSETLSLTCTVSGASVNNYYWTWVRQPPGKGLEWIGNVYDSGDTNYNPSLSSRLSLSMDTSKNQFSLRLSSVTAADTATYYCARYHRHFIRGPLSFDYWGRGTLVTVSS
VL: LQMTQSPSFLSASVGDRVSITCRASQAIQKFLAWYQLTPGDAPKLLMYSASTLQSGVPSRFSGSGSGTEFTLTISGLQPEDFATYYCQHLKRYPYTFGQGTKLEIS
In turn, B10 gave a 50% inhibitory concentration (IC50) in test [1] of 70.8 ± 1.8 nM. Besides, half-maximal inhibition in test [2] (IC50) was put at 65.5 ± 0.5 nM. In test [3], this molecule yielded a Kd of 0.7 nM, a koff of 1.9e-05 s⁻¹ and an association rate constant (kon) of 28000 ± 3.1 M⁻¹ s⁻¹.

B11: Fab m18 N31A (HCDR1) (Fab, V domains shown)
VH: VQLLESGPGVVKPSETLSLTCTVSGASVNAYYWTWVRQPPGKGLEWIGNVYDSGDTNYNPSLSSRLSLSMDTSKNQFSLRLSSVTAADTATYYCARYHRHFIRGPLSFDYWGRGTLVTVSS
VL: LQMTQSPSFLSASVGDRVSITCRASQDIQKFLAWYQLTPGDAPKLLMYSASTLQSGVPSRFSGSGSGTEFTLTISGLQPEDFATYYCQHLKRYPYTFGQGTKLEIS
The molecule B11 had an IC50 in test [1] greater than 1000 nM. Further, the half-inhibitory concentration (IC50) in test [2] was greater than 1000 nM. In test [3], this molecule came in with a Kd of 25.9 nM, an off-rate constant (koff) of 0.0013 ± 0.5 s⁻¹ and an association rate constant (kon) of 51000 ± 1 M⁻¹ s⁻¹.

B12: Fab m18 R93A (LCDR3) (Fab, V domains shown)
VH: VQLLESGPGVVKPSETLSLTCTVSGASVNNYYWTWVRQPPGKGLEWIGNVYDSGDTNYNPSLSSRLSLSMDTSKNQFSLRLSSVTAADTATYYCARYHRHFIRGPLSFDYWGRGTLVTVSS
VL: LQMTQSPSFLSASVGDRVSITCRASQDIQKFLAWYQLTPGDAPKLLMYSASTLQSGVPSRFSGSGSGTEFTLTISGLQPEDFATYYCQHLKAYPYTFGQGTKLEIS
As for B12, the IC50 in test [1] was 78.7 ± 3.2 nM. This molecule yielded a half-maximal inhibitory concentration (IC50) in test [2] of 49.5 ± 20.5 nM. Further, in test [3], binding was put at a Kd of 2 nM, the koff turned out to be 8e-05 s⁻¹ and the kon amounted to 39000 ± 0.2 M⁻¹ s⁻¹.

B13: Fab m18 Q27A (LCDR1) (Fab, V domains shown)
VH: VQLLESGPGVVKPSETLSLTCTVSGASVNNYYWTWVRQPPGKGLEWIGNVYDSGDTNYNPSLSSRLSLSMDTSKNQFSLRLSSVTAADTATYYCARYHRHFIRGPLSFDYWGRGTLVTVSS
VL: LQMTQSPSFLSASVGDRVSITCRASADIQKFLAWYQLTPGDAPKLLMYSASTLQSGVPSRFSGSGSGTEFTLTISGLQPEDFATYYCQHLKRYPYTFGQGTKLEIS
In test [1], B13 had an IC50 of 54.5 ± 3.5 nM. For the same molecule, the IC50 in test [2] came to 49.6 ± 3.1 nM. Moreover, in test [3], the dissociation constant Kd was determined as 6.7 nM, the koff was 0.00049 ± 3.9 s⁻¹ and the on-rate (kon) was 72000 ± 2.9 M⁻¹ s⁻¹.

B14: Fab m18 S56A (LCDR2) (Fab, V domains shown)
VH: VQLLESGPGVVKPSETLSLTCTVSGASVNNYYWTWVRQPPGKGLEWIGNVYDSGDTNYNPSLSSRLSLSMDTSKNQFSLRLSSVTAADTATYYCARYHRHFIRGPLSFDYWGRGTLVTVSS
VL: LQMTQSPSFLSASVGDRVSITCRASQDIQKFLAWYQLTPGDAPKLLMYSASTLQAGVPSRFSGSGSGTEFTLTISGLQPEDFATYYCQHLKRYPYTFGQGTKLEIS
In turn, B14 showed a half-maximal inhibitory concentration (IC50) in test [1] greater than 500 nM. Besides, in test [2], the IC50 is greater than 500 nM. For the same molecule, in test [3], the affinity, expressed as Kd, was 25.7 nM; the koff was determined as 0.00066 ± 1.4 s⁻¹; the kon was 28000 ± 0.7 M⁻¹ s⁻¹.

B15: Fab m18 Y33A (HCDR1) (Fab, V domains shown)
VH: VQLLESGPGVVKPSETLSLTCTVSGASVNNYAWTWVRQPPGKGLEWIGNVYDSGDTNYNPSLSSRLSLSMDTSKNQFSLRLSSVTAADTATYYCARYHRHFIRGPLSFDYWGRGTLVTVSS
VL: LQMTQSPSFLSASVGDRVSITCRASQDIQKFLAWYQLTPGDAPKLLMYSASTLQSGVPSRFSGSGSGTEFTLTISGLQPEDFATYYCQHLKRYPYTFGQGTKLEIS
Consider B15, for which the concentration for half-maximal inhibition (IC50) in test [1] was determined as 150 ± 3.5 nM. This molecule came in with an IC50 in test [2] of 135 ± 7.1 nM. Further, in test [3], the Kd was 30.7 nM, the koff is 0.0038 ± 0.2 s⁻¹ and the on-rate constant (kon) is 120000 ± 0.5 M⁻¹ s⁻¹.

Broadly, the IC50 is the concentration that gives 50% inhibition. A lower IC50 goes with greater potency in that assay. A word on the Kd: it is the free concentration of one partner at which half of the binding sites on the other are occupied at equilibrium, for simple one-to-one binding. What is called koff is the rate constant with which the complex falls apart. A low value points to a long-lived complex. One may read the kon as a measure of how fast the partners come together. A low value points to slow association.
